This is an account of results in the nanobody polyreactivity screen of Harvey et al. (2022).

The nature of the data set: yeast display, Sf9 membrane polyspecificity reagent, FACS + sequencing; frameworks hold sequencing errors. In a few lines: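 After 36–48 hours of galactose induction, yeast (Saccharomyces cerevisiae BJ5465) displaying a synthetic nanobody library were stained at 4 °C for 1 hour with 10% biotinylated, detergent-solubilized Sf9 membrane reagent. Streptavidin microbeads enriched the stained cells before FACS sorting into low and high (top ~1%) gates on anti-HA and streptavidin fluorescence. Each clone's polyreactivity label reflects its gate of origin.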
Regarding “QVQLVESGGGLVQAGGSLRLSCAASGFTFGIYAMGWYRQAPGKERELVAAITKGGGSTYYADSVKGRFTISRDNAKNTVYLQMNSLKPEDTAVYYCAARRVSERRVGYWGQGTQVTVSS”, the “polyreactivity (PSR sort gate)” value was “high polyreactivity”.

Turning to “QVQLVESGGGLVQAGGSLRLSCAASGFTFGKYAMGWYRPAPAKERELVAAISRSGGSTYYADSVKGRFTISRDIAKNTVYLQMNSLKPEDTAVYYCAAYHPIQEYDYWGQGTQVTVSS”, the “polyreactivity (PSR sort gate)” value is recorded as “high polyreactivity”.

As to “QVQLVESGGGLVQAGGSLRLSCAASGFTFGKYARGWYRQAPGKERELVAAISRSGGSTYYADSVKGRFTISRDNAKNTVYLQMNSLKPEDTAVYYCAAYHPIQEYDYWGQGTQVTVSS”, the “polyreactivity (PSR sort gate)” value is listed as “high polyreactivity”. As for “QVQLVESGGGLVQAGGSLRLSCAASGFTFGLYAMGWYRQAPGKERELVAAISWSGDNTYYADSVKGRFTISRDNAKNTVYLQMNSLKPEDTAVYYCAKVTKRNQGYYYWGQGTQVTVSS”, the “polyreactivity (PSR sort gate)” value is recorded as “high polyreactivity”.

Consider “QVQLVESGGGLVQAGGSLRLSCAASGFTFGNYAMGWYRQAPGKERELVAAITRGGSTYYADSVKGRFTISRDNAKNTVYLQMKSLKPEDTAVYYCAARYFFWFRPSEYYYWGQGTQVTVSS”, for which the “polyreactivity (PSR sort gate)” value is given as “high polyreactivity”. The same measure for “QVQLVESGGGLVQAGGSLRLSCAASGFTFGPNAMGWYRQAPGKEREFVAAISWSGGSTYYADSVKGRFTISRDNAKNTVYLQMNSLKPEDTAVYYCAARYRYTRSGTMGYWGQGTQVTVSS”: “high polyreactivity”. The same measure for “QVQLVESGGGLVQAGGSLRLSCAASGFTFGRNAMGWYRQAPGKERELVAAISRGGSTYYADSVKGRFTISRDNAKNTVYLQMISLKPEDTAVYYCAAETFLKPQYFKKFGYWGQGTQVTVSS”: “high polyreactivity”; for “QVQLVESGGGLVQAGGSLRLSCAASGFTFGRYAMGWYRQAPGKERELVAAITWSGGTTTYYADSVKGRFTISRDNAKNTVYLQMNSLKPEDTAVYYSAADLYFYIYSYNYWGQGTQVTVSS”: “low polyreactivity”. The same measure for “QVQLVESGGGLVQAGGSLRLSCAASGFTFGRYAMGWYRQAPGKERELVASITSGGSTYYADSVKGRFTISRDNAKNTVYLQMNSLKPEDTAVYYCAAEWRWWGGYYYWGQGTQVTVSS”: “high polyreactivity”; for “QVQLVESGGGLVQAGGSLRLSCAASGFTFGRYTMGCYRQEPGKERELVAAISKSGSGTFYADSVKGRFTISRDNAKNTVYLQINSLKPEDTAVYYCAARYRHFGNQVRTSHSIMYYWGQGTQVTVSS”: “high polyreactivity”. For “QVQLVESGGGLVQAGGSLRLSCAASGFTFGRYTMGWYRQAPGKERELVAAISWSGGSTYYADSVKGRFTISRDNAKNTVYLQMNSLKPEDTAVYYCAKVFRGGRGDYWGQGTQVTVSS”, the “polyreactivity (PSR sort gate)” value was “high polyreactivity”. The same measure for “QVQLVESGGGLVQAGGSLRLSCAASGFTFGSNAMGWYRQAPGKERELVAAISYSGTRTYYADSVKGRFTISRDNAKNTVYLQMNRLKPEDTAVYYCAAGFRKTQFNVRYYYWGHGTQVTVSS”: “high polyreactivity”; for “QVQLVESGGGLVQAGGSLRLSCAASGFTFGSYAMGWYRQAPGKERELVAAIRQSATRTYYADSVKGRFTISRDNAKNTVYLQMNSLKPEDTAVYYCNVARPGKYFYIYDYWGQGTQVTVSS”: “low polyreactivity”; for “QVQLVESGGGLVQAGGSLRLSCAASGFTFGSYAMGWYRQAPGKERELVAAITASGGSTYYADSVKGRFTISRDNPKNTVYLQMNSLKPEDTAVYYCNKRWTYKWDDYWGQGTQVTVSS”: “high polyreactivity”. The same measure for “QVQLVESGGGLVQAGGSLRLSCAASGFTFGTYAMGWYRQAPGKERELVAAITSSGTITYYADSVKGRFTISRDNAKNTVYLQMNSLKPEDTAVYYCAARRFRRLRWGQGTQVTVSS”: “low polyreactivity”; for “QVQLVESGGGLVQAGGSLRLSCAASGFTFGVYAMGWYRQAPGKERELVAAITWGDGSTYYADSVKGRFTISRDNAKNTVYLQMYSLKPEDTAVYYCIAVTRRHIYYYWGQGTQVTVSS”: “high polyreactivity”.

Regarding “QVQLVESGGGLVQAGGSLRLSCAASGFTFGVYTMGWYRQAPGKETELVASISWDGGSTYYADSVKGRFTISRDNAKNTVYLQMNSLKPEDTAVYYCAKGSSFYYGYDYWGQGTQVTVSS”, the “polyreactivity (PSR sort gate)” value is reported as “low polyreactivity”. For the sequence “QVQLVESGGGLVQAGGSLRLSCAASGFTFGWNAMGWYRQAPGKERELVAAISWSGGSTYYADSVKGRFTISRDNAKKTVYLQMNSLKPEDTAVYYCAAYPAYGGDYWGQGTQVTVSS”, the “polyreactivity (PSR sort gate)” value was “high polyreactivity”. Next, “QVQLVESGGGLVQAGGSLRLSCAASGFTFGWNAMGWYRQAPGKERELVAAISWSGGSTYYADSVKGRFTISRDNAKNTVYLQMNSLKPEDTAVYYCAAYPAYGGDYWGQGTQVTVSS”: “high polyreactivity”; “QVQLVESGGGLVQAGGSLRLSCAASGFTFGWYAMGRYRQAPGKERELVAAISRGGSTYYADSVKGRFTISRDNAKNTVYLQMNSLKPEDTAVYYCNAAGLPTQLYYWGQGTQVTVSS”: “high polyreactivity”; “QVQLVESGGGLVQAGGSLRLSCAASGFTFGYNDMGWYRQAPGKERELVAAIRLSDGGTYYADSVKGRFTISRDNAKNTVYLQMNSLKPEDTAVYYCAAPQDTYIPYDYWGQGTQVTVSS”: “low polyreactivity”. With “QVQLVESGGGLVQAGGSLRLSCAASGFTFGYNTMGWYRQAPGKERELVATITSGGSTYYADSVKGRFTISRDNAKNTDYLQMNSLKPEDTAVYYCAATAGSPWAKSRYGYWGQGTQVTVSS”, the “polyreactivity (PSR sort gate)” value is on record as “low polyreactivity”. The same measure for “QVQLVESGGGLVQAGGSLRLSCAASGFTFGYYAKGWYRQAPGKERELVAGISRGGRTNYADSVKGRFTISRDNAKNTVYLQMNSLKPEDTAVYYCAKDTYYPSSRYNRYYYWGQGSQVTVSS”: “high polyreactivity”; for “QVQLVESGGGLVQAGGSLRLSCAASGFTFGYYALGWYRQAPGKERELVAAINYSGGSTYYADSVKGRFTISRDNAKNTVYLQMNSLKPEDTAVYYCAAQSYYGRGYWGQGTQVTVSS”: “high polyreactivity”. As for “QVQLVESGGGLVQAGGSLRLSCAASGFTFGYYAMGWYRQAPGKERELVAAISSRGSGTYYADSVKGRFTMSRDNAKNTVYLQLNSLKPEDTAVYYCARPSALLGYWGQGTQVTVSS”, the “polyreactivity (PSR sort gate)” value was “low polyreactivity”. The same measure for “QVQLVESGGGLVQAGGSLRLSCAASGFTFGYYAMGWYRQAPGKERELVAAITYSGGSTYYADSVKGRFTISRDNAKNTVYLQMNSLKPEDTAVYYCNAYARRYYYGRWYGEFDYWGQGTQVTVSS”: “low polyreactivity”; for “QVQLVESGGGLVQAGGSLRLSCAASGFTFGYYAMGWYRQAPGKERELVGAINWSGGRTYYADSVKGRFTISRDNAKNTVYLQMNSLKPEDTAVYYCAASAHYDGDYWGQGTQVTVSS”: “high polyreactivity”. In the case of “QVQLVESGGGLVQAGGSLRLSCAASGFTFGYYGMGWYRQAPGKERELVAAISWSGGSTYYADSVKGRFTISRDNEKNTVYLQMNSLKPEDTAVYYCNADYAGFYQRRYIEDDYWGQGTQVTVSS”, the “polyreactivity (PSR sort gate)” value is given as “low polyreactivity”.

Turning to “QVQLVESGGGLVQAGGSLRLSCAASGFTFGYYGMGWYRQAPGKVRELVAAINWSGVNTNYADSVKGRFTISRDNAKNTVYLQMNSLKPEDTAVYYCAADAGYDGYGYWGQGTQVTVSS”, the “polyreactivity (PSR sort gate)” value is reported as “low polyreactivity”. The same measure for “QVQLVESGGGLVQAGGSLRLSCAASGFTFGYYTMGWYRQAPGKERELVAAISSSGGSTYYADSVKGRFTISRDNAKNTVYLQMNSLKPEDTAVYYCAARSVRYGGRYDYWGQGTQVTVSS”: “high polyreactivity”.
